Several values for one entry are separate records, joined by “and”; a condition that tells them apart may be missing. Equal entries are not always repeated.
T1: polypeptide GC3pep of human GPC3 (Ala524-Lys563) (human)
T1 construct: Residues Ala524-Lys563 of human GPC3 (NCBI NM_004484.3); coated on the ELISA plate; also called membrane proximal polypeptide GC3pep
T1 peptide: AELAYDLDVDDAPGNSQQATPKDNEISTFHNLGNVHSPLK


These binders were tested against T2, murine GPC3-His protein (Sino Biological, Cat. No. 50989-M08B) (murine, UniProt Q8CFZ4 25-558) (assay: ELISA, coated antigen).
T2 construct: Bought protein; also called murine GPC3 protein; mouse GPC3-his protein; not shown: His tag
T2 sequence (Q8CFZ4 25-558 limits assumed): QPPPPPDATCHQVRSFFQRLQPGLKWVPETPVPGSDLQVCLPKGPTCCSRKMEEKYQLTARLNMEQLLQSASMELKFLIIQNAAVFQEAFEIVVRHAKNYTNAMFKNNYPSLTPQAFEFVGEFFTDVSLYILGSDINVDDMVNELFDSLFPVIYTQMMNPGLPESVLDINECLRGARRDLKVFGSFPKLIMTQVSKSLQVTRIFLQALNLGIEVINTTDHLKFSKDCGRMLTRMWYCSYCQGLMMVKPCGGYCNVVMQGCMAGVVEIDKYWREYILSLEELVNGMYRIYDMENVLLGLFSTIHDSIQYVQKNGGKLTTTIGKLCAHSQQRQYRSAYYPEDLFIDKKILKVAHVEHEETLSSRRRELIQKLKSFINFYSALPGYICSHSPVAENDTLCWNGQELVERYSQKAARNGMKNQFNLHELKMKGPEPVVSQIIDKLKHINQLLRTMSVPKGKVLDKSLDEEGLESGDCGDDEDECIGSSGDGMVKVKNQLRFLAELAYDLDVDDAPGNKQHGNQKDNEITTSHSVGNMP

| binding result | Binder |
| --- | --- |
| no binding | hAb007LH1L1c (antibody, human IgG1, V domains shown, Humanized F3.81.19) VH: EVQLVQSGAEVKKPGSSVKVSCKASGYTFSDYEMHWVRQAPGQGLEWMGTIDPETGNTAYNQKFKGRVTITADKSTSTAYMELSSLRSEDTAVYYCTRPYSLTYWGQGTLVTVSS VL: DIVMTQTPLSLPVTPGEPASISCRSSQSFVHSNADTYLQWYLQKPGQSPQLLIYKVSNRFSGVPDRFSGSGSGTDFTLKISRVEAEDVGVYYCFQGSHVPYTFGQGTKLEIK |
| no binding | hAb007LH3L1b (antibody, human IgG1, V domains shown, Humanized F3.81.19) VH: EVQLVQSGAEVKKPGSSVKVSCKASGYTFTDYEMHWVRQAPGQGLEWMGTIDPETGNTAYNQKFKGRVTLTADKSTSTAYMELSSLRSEDTAVYYCTRPYSLTYWGQGTLVTVSS VL: DIVMTQTPLSLPVTPGEPASISCRSSQSFVHSNRDTYLQWYLQKPGQSPQLLIYKVSNRFSGVPDRFSGSGSGTDFTLKISRVEAEDVGVYYCFQGSHVPYTFGQGTKLEIK |
| no binding | hAb007LH2L1a (antibody, human IgG1, V domains shown, Humanized F3.81.19) VH: EVQLVQSGAEVKKPGSSVKVSCKASGYTFTDYEMHWVRQAPGQGLEWMGTIDPETGNTAYNQKFKGRVTITADKSTSTAYMELSSLRSEDTAVYYCTRPYSLTYWGQGTLVTVSS VL: DIVMTQTPLSLPVTPGEPASISCRSSQSFVHSDGDTYLQWYLQKPGQSPQLLIYKVSNRFSGVPDRFSGSGSGTDFTLKISRVEAEDVGVYYCFQGSHVPYTFGQGTKLEIK |
| no binding | hAb007LH1L1d (antibody, human IgG1, V domains shown, Humanized F3.81.19) VH: EVQLVQSGAEVKKPGSSVKVSCKASGYTFSDYEMHWVRQAPGQGLEWMGTIDPETGNTAYNQKFKGRVTITADKSTSTAYMELSSLRSEDTAVYYCTRPYSLTYWGQGTLVTVSS VL: DIVMTQTPLSLPVTPGEPASISCRSSQSFVHSNSDTYLQWYLQKPGQSPQLLIYKVSNRFSGVPDRFSGSGSGTDFTLKISRVEAEDVGVYYCFQGSHVPYTFGQGTKLEIK |
| no binding | hAb007LH2L1b (antibody, human IgG1, V domains shown, Humanized F3.81.19) VH: EVQLVQSGAEVKKPGSSVKVSCKASGYTFTDYEMHWVRQAPGQGLEWMGTIDPETGNTAYNQKFKGRVTITADKSTSTAYMELSSLRSEDTAVYYCTRPYSLTYWGQGTLVTVSS VL: DIVMTQTPLSLPVTPGEPASISCRSSQSFVHSNRDTYLQWYLQKPGQSPQLLIYKVSNRFSGVPDRFSGSGSGTDFTLKISRVEAEDVGVYYCFQGSHVPYTFGQGTKLEIK |
| no binding | hAb007LH1L1b (antibody, human IgG1, V domains shown, Humanized F3.81.19) VH: EVQLVQSGAEVKKPGSSVKVSCKASGYTFSDYEMHWVRQAPGQGLEWMGTIDPETGNTAYNQKFKGRVTITADKSTSTAYMELSSLRSEDTAVYYCTRPYSLTYWGQGTLVTVSS VL: DIVMTQTPLSLPVTPGEPASISCRSSQSFVHSNRDTYLQWYLQKPGQSPQLLIYKVSNRFSGVPDRFSGSGSGTDFTLKISRVEAEDVGVYYCFQGSHVPYTFGQGTKLEIK |
| no binding | hAb007LH1L1e (antibody, human IgG1, V domains shown, Humanized F3.81.19) VH: EVQLVQSGAEVKKPGSSVKVSCKASGYTFSDYEMHWVRQAPGQGLEWMGTIDPETGNTAYNQKFKGRVTITADKSTSTAYMELSSLRSEDTAVYYCTRPYSLTYWGQGTLVTVSS VL: DIVMTQTPLSLPVTPGEPASISCRSSQSFVHSNVDTYLQWYLQKPGQSPQLLIYKVSNRFSGVPDRFSGSGSGTDFTLKISRVEAEDVGVYYCFQGSHVPYTFGQGTKLEIK |
| no binding | hAb007LH3L1 (antibody, human IgG1, V domains shown, Humanized F3.81.19) VH: EVQLVQSGAEVKKPGSSVKVSCKASGYTFTDYEMHWVRQAPGQGLEWMGTIDPETGNTAYNQKFKGRVTLTADKSTSTAYMELSSLRSEDTAVYYCTRPYSLTYWGQGTLVTVSS VL: DIVMTQTPLSLPVTPGEPASISCRSSQSFVHSNGDTYLQWYLQKPGQSPQLLIYKVSNRFSGVPDRFSGSGSGTDFTLKISRVEAEDVGVYYCFQGSHVPYTFGQGTKLEIK |
| no binding | hAb007LH1L1a (antibody, human IgG1, V domains shown, Humanized F3.81.19) VH: EVQLVQSGAEVKKPGSSVKVSCKASGYTFSDYEMHWVRQAPGQGLEWMGTIDPETGNTAYNQKFKGRVTITADKSTSTAYMELSSLRSEDTAVYYCTRPYSLTYWGQGTLVTVSS VL: DIVMTQTPLSLPVTPGEPASISCRSSQSFVHSDGDTYLQWYLQKPGQSPQLLIYKVSNRFSGVPDRFSGSGSGTDFTLKISRVEAEDVGVYYCFQGSHVPYTFGQGTKLEIK |
| no binding | hAb007LH3L1a (antibody, human IgG1, V domains shown, Humanized F3.81.19) VH: EVQLVQSGAEVKKPGSSVKVSCKASGYTFTDYEMHWVRQAPGQGLEWMGTIDPETGNTAYNQKFKGRVTLTADKSTSTAYMELSSLRSEDTAVYYCTRPYSLTYWGQGTLVTVSS VL: DIVMTQTPLSLPVTPGEPASISCRSSQSFVHSDGDTYLQWYLQKPGQSPQLLIYKVSNRFSGVPDRFSGSGSGTDFTLKISRVEAEDVGVYYCFQGSHVPYTFGQGTKLEIK |

Molecular target: T1, polypeptide GC3pep of human GPC3 …
Assay: ELISA, coated peptide

| binding result | Binder |
| --- | --- |
| no binding (tested: 100 nM) | F1.73.9 human-murine chimeric antibody (antibody, human IgG1, kappa, V domains shown, Chimeric) VH: QVQLKQSGAELVRPGASVKLSCKASGYTFTDYYINWVKQRPGQGLEWIARIYPGSGNTYYNEKFKGKATLTAEKSSSTAYMQFSSLTSEDSAVYFCACSTYYTMDYWGQGTSVTVSS VL: QIVLTQSPAIMSASLGERVTMTCTASSGVSSSYLHWYQQKPGSSPKLWIYTTSNLASGVPARFSGSGSGTSYSLTISSMEAEDAATYYCHQYHRSPYTFGGGTKLEIKR |
| no binding (tested: 100 nM) | F1.21.8 human-murine chimeric antibody (antibody, human IgG1, kappa, V domains shown, Chimeric) VH: EVQLQQSGPELVKPGASVKISCKTSGFLFTGHYMHWVKSSHGNILDWIGYIYPYNAISFYNQKFKGKATLTVDKSSNTAYMELRSLTSEDSAVYYCARGDYGNYVTAYWGQGTLVTVSA VL: DVLMTQTPLSLPVSLGDQASISCRSSQSIVHSSGNTYLEWYLQKPGQSPKLLIYKVSNRFSGVPDRFSGSGSGTDFTLKISRVEAEDLGVYYCFQGSHLPWTFGGGTKLDIKR |
| no binding (tested: 100 nM) | F1.78.24 human-murine chimeric antibody (antibody, human IgG1, kappa, V domains shown, Chimeric) VH: QVQLQQSGAELVKPGASVKMSCKASGYTFTTYPIEWMKQNHGKSLEWIGNFHPYNDDTNYNVKFKGKATLTVEKSSSTVYLELSRLTSDDSALYYCARRREYYGSFDVWGTGTTVTVSS VL: not shown |
| no binding (tested: 100 nM) | F1.83.6 human-murine chimeric antibody (antibody, human IgG1, kappa, V domains shown, Chimeric) VH: QVQLQQSGPELVKPGASVKISCKASGYAFSSSWMNWVKQRPGKGLEWIGRIYPGDGDTNYNGRFKGKATLTVDKSSSTAYMQLSSLTSEDSAVYFCARGGVFTMALDHWGQGTTLTVSS VL: DIQMTQSPSSLSASLGGKVTITCKASQDINKYIAWYQHKPGKGPRLLIHYTSTLQPGIPSRFSGSGSGRDYSFSISNLEPEDIATYYCLQYDNLFTFGGGTKLEIKR |
| no binding (tested: 100 nM) | F1.2.14 human-murine chimeric antibody (antibody, human IgG1, kappa, V domains shown, Chimeric) VH: RVQLQQSGAELVKPGASVRMSCKASGYTFTAYSIEWMKQNLGKSLEWIGNFRPYNDDTKYNENFKGRATLTVEKSSATVYLELSRLTSDDSAVYYCARSGPTDYFDYWGQGTTLIVSS VL: DIQMTQSPASLSASVGETVTITCRASDNIYSYLAWYQQKQGQSPQLLVYNAKTLAEGVPSRFSGSGSVTQFSLKIISLQPEDFGTYYCQHHFGTPRTFGGGTKLEIKR |
| no binding (tested: 100 nM) | F1.57.21 human-murine chimeric antibody (antibody, human IgG1, kappa, V domains shown, Chimeric) VH: QVQLQQSGAELARPGASVKLSCKASGYTFTSYGISWVKQITGQGLEWIGEIYPRSESTYYNEKFKGKATLTADKSSSTAYMELRSLTSEDSAVYFCARDYGNIYSFAYWGQGTLVTVSA VL: DIQMTQSPASLSASVGETVTITCRTSENIYSYLAWYQQKQGKSPQLLVYNAKTLAEGVPSRFSGSGSGTQFSLKINSLQPEDFGSYYCQHHYGTPLTFGAGTKLELKR |
| no binding (tested: 100 nM) | F1.92.17 human-murine chimeric antibody (antibody, human IgG1, kappa, V domains shown, Chimeric) VH: EVQLQQSGPELVKPGASVKMSCKASGYTFTDYNMHWVRQSHGKSLEWIGYINPNNGDTIYNQNFKGKATLTVNKSSSTAYMELRSLTSEDSAVYYCSRTITYYYSMDYWGPGTSVTVSS VL: QIVLTQSPALMSASPGEKVTMTCSASSSVSYMYWYQQKPRSSPKPWIYLTSNLASGVPARFSGSGSGTSYSLTISSMEAEDAATYYCQQWSSNPLTFGAGTKLELKR |
| no binding (tested: 100 nM) | F1.42.8 human-murine chimeric antibody (antibody, human IgG1, kappa, V domains shown, Chimeric) VH: HVQLQQPGAELVKPGASVKLSCKASGYTFTSYWMHWVRQRPGQGLEWIEMIHPNSGSTNYNEKFKSKATLTVDKSSSTAYMQLSSLTSEDSAVYYCARGNYNSSLYAMDYWGQGTSVTVSS VL: DIQMTQTTSSLSASLGDRVTISCSASQGISNYLNWYQQKPDGTVKLLIYYASNLHSGVPSRFSGSGSGTAYSLTISNLEPEDIATYYCQQYSILPYTFGGGTKLEIKR |
| no binding (tested: 100 nM) | F1.110.24 human-murine chimeric antibody (antibody, human IgG1, kappa, V domains shown, Chimeric) VH: EVKLVESGGGLVQPGGSLKLSCAASGFTFSDFYMYWVRQTPEKRLEWVAFISNGGGSTYYPDTVKGRFTISRDNVKNTLYLQMSRLKSEDTAMYYCARPDTSWFAYWGQGSLVTVSA VL: DIQMTQTTSSLSASLGDRVTISCRASQDIDNYLNWYQQKPDGTVKVLISYTSRLHSGVPSRFSGSGSGTDYSLTISNLEQEDIATYFCQQGNTLPWTFGGGTKLEIKR |

The binders below were run against T3, GPC3 on HepG2 cells (human, UniProt P51654 25-554) (assay: FACS on HepG2 cells).
T3 construct: whole, on cells; also called glypican-3

| EC50 | Max MFI | Binder |
| --- | --- | --- |
| 0.918 nM | 4090 | hAb001H1L1b (antibody, human IgG1, V domains shown, Humanized F2.169.2, H1+L1b) VH: EVQLVESGGGLVQPGGSLRLSCAASGFSFNTNAMNWVRQAPGKGLEWVGRIRSKSNNYATYYADSVKDRFTISRDDSKNSLYLQMNSLKTEDTAVYYCVRDGYYVLFAYWGQGTLVTVSS VL: DIVMTQTPLSLPVTPGEPASISCRFSQSIVNSNANTYLEWFLQKPGQSPQLLIYKVSNRFSGVPDRFSGSGSGTDFTLKISRVEAEDVGVYYCFQGSHVPFTFGQGTKLEIK |
| 1.56 nM and 1.21 nM |  | GC33 IgG (antibody, V domains shown, Complete IgG form of the control antibody GC33; also called codrituzumab) VH: QVQLVQSGAEVKKPGASVKVSCKASGYTFTDYEMHWVRQAPGQGLEWMGALDPKTGDTAYSQKFKGRVTLTADKSTSTAYMELSSLTSEDTAVYYCTRFYSYTYWGQGTLVTVSS VL: DVVMTQSPLSLPVTPGEPASISCRSSQSLVHSNRNTYLHWYLQKPGQSPQLLIYKVSNRFSGVPDRFSGSGSGTDFTLKISRVEAEDVGVYYCSQNTHVPPTFGQGTKLEIKR |

Source: patent US20260116991A1 (HAINAN SIMCERE ZAIMING PHARMACEUTICAL, published 2026)
